The series is described as follows: protein stability index of a GFP-peptide fusion (yeast GPS) (PSI 1-4); higher = more stable; sorted into four equal gates, so the index is relative within each strain. In a few lines:
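Peptides tiling yeast proteins in 17-residue segments were fused downstream of GFP, with Cherry expressed from the same plasmid. As a pooled library in yeast, mid-log cultures grown in leucine-free medium were sorted into four equal gates by GFP/Cherry fluorescence ratio. Gate plasmids were PCR-amplified and Illumina-sequenced, and barcodes linked reads to strains. Each peptide received a protein stability index equal to the sum of each gate's read frequency times its gate number.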

This is an account of results in the supplement of paper PMC9732359.

± gives the uncertainty stated by the source.

In the case of ENIAQMKPKAEKESDDG [SMC4], the protein stability index runs as follows: (doa10∆) 3.1 ± 0.26; (pdr5∆) 3.16 ± 0.23; (ubr1∆) 3.74 ± 0.2.

In the case of KLEPKEIVRDILHTKES [SIR4], the protein stability index is, setting by setting: (doa10∆) 2.92 ± 0.1; (pdr5∆) 3.1 ± 0.14; (san1∆) 2.5 ± 0.18; (ubr1∆) 3.04 ± 0.086.

As for NCVNDVLEFCKDYEAKT [POP1], the protein stability index (doa10∆) stood at 3.2 ± 0.075, the protein stability index (pdr5∆) was 3.45 ± 0.083, the protein stability index (san1∆) turned out to be 3.14 ± 0.072 and the protein stability index (ubr1∆) is 3.32 ± 0.051.

With ESMDFLVLADAFDIELS [YCS4], the protein stability index reads like this: (doa10∆) 2.32 ± 0.039; (pdr5∆) 2.82 ± 0.043; (san1∆) 2.64 ± 0.055; (ubr1∆) 2.64 ± 0.039.

With AFNRFMAESLVDLEEVM [SSN8], the protein stability index was determined as 1.57 ± 0.068 (doa10∆), 2.4 ± 0.078 (pdr5∆), 2.36 ± 0.17 (san1∆) and 1.62 ± 0.059 (ubr1∆).

Turning to LKNMLYVLSTAVEFESV [BRR2], the protein stability index reads like this: (doa10∆) 1.77 ± 0.038; (pdr5∆) 1.58 ± 0.037; (san1∆) 1.88 ± 0.081; (ubr1∆) 1.42 ± 0.032.

As for EDDEFEDFPIDTWANGE [SEM1], the protein stability index came out at 3.32 ± 0.098 (doa10∆), 3.26 ± 0.11 (pdr5∆), 2.85 ± 0.11 (san1∆) and 3.03 ± 0.078 (ubr1∆).

On to NIIESIANFSRAGKYEL [YJR042W/NUP85], for which the protein stability index worked out at 2.86 ± 0.087 (doa10∆), 2.96 ± 0.086 (pdr5∆), 2.87 ± 0.051 (san1∆) and 2.44 ± 0.042 (ubr1∆).

For the sequence IDIDKLIQLGVKPLESS [SRP72], the protein stability index is, setting by setting: (doa10∆) 3.19 ± 0.086; (pdr5∆) 2.87 ± 0.068; (san1∆) 3.04 ± 0.055; (ubr1∆) 2.82 ± 0.054.

On to QESLVKLFTTNELMRWP [RPN5], for which the protein stability index (doa10∆) was 2.96 ± 0.21, the protein stability index (pdr5∆) was determined as 3.72 ± 0.3, the protein stability index (san1∆) was found to be 3.15 ± 0.12 and the protein stability index (ubr1∆) was 2.91 ± 0.13.

EVFSRPEWMILTCLPVP [RPO21]: the protein stability index was found to be 1.42 ± 0.12 (doa10∆), 1.48 ± 0.12 (pdr5∆), 1.51 ± 0.14 (san1∆) and 1.67 ± 0.063 (ubr1∆).

As to HANAAAVYFADTSGLKI [SIN4], the protein stability index is, setting by setting: (doa10∆) 2.37 ± 0.067; (pdr5∆) 2.56 ± 0.065; (san1∆) 2.23 ± 0.073; (ubr1∆) 2.49 ± 0.053.

Regarding PRIQRADPVALYLGLKR [RPB5], the protein stability index amounted to 1.82 ± 0.11 (doa10∆), 2.42 ± 0.1 (pdr5∆) and 2.28 ± 0.083 (ubr1∆).

GFPSAPQPLFMEDPPST [YMR153W/NUP53] displayed a protein stability index (doa10∆) of 2.66 ± 0.06, a protein stability index (pdr5∆) of 3.08 ± 0.056, a protein stability index (san1∆) of 2.98 ± 0.053 and a protein stability index (ubr1∆) of 2.8 ± 0.052.

On to QGLNILEWLENPSNTPD [FAS1], for which the protein stability index is, setting by setting: (doa10∆) 3.2 ± 0.12; (pdr5∆) 3.06 ± 0.086; (san1∆) 3.41 ± 0.051; (ubr1∆) 3.14 ± 0.058.

Regarding EASSLGYLDDSEILIIS [IRR1], the protein stability index by setting is: (doa10∆) 2.1 ± 0.048; (pdr5∆) 1.85 ± 0.037; (san1∆) 1.91 ± 0.1; (ubr1∆) 1.87 ± 0.036.

As to IGAELKREESESAAVYN [SNF2], the protein stability index runs as follows: (doa10∆) 2.99 ± 0.087; (pdr5∆) 3.08 ± 0.091; (san1∆) 2.84 ± 0.071; (ubr1∆) 3.21 ± 0.071.

On to KLSISNAASQQPTPRSA [GAL11], for which the protein stability index came to 2.57 ± 0.083 (doa10∆), 2.61 ± 0.081 (pdr5∆), 2.73 ± 0.058 (san1∆) and 2.91 ± 0.049 (ubr1∆).

For the sequence RERRIHVTQEDFELAVG [RPT6], the protein stability index was determined as 2.38 ± 0.074 (doa10∆), 2.74 ± 0.06 (pdr5∆), 2.08 ± 0.074 (san1∆) and 2.61 ± 0.066 (ubr1∆).

With GLLDESPNRLRVRTDDS [YML031W/NDC1], the protein stability index is, setting by setting: (doa10∆) 1.5 ± 0.098; (pdr5∆) 1.82 ± 0.15; (san1∆) 1.67 ± 0.12; (ubr1∆) 1.64 ± 0.051.

Take GKISKPRFLNKQERSKQ [PRP28]: the protein stability index reads like this: (doa10∆) 1.9 ± 0.088; (pdr5∆) 2.46 ± 0.13; (san1∆) 3.33 ± 0.11; (ubr1∆) 2.13 ± 0.088.

In the case of IYAKQQEQLKQMDQQLQ [ARP7], the protein stability index was found to be 1.76 ± 0.066 (doa10∆), 2.05 ± 0.079 (pdr5∆), 2.2 ± 0.1 (san1∆) and 2.7 ± 0.072 (ubr1∆).

In the case of REHSLQLFRTNKVQIMI [PRP28], the protein stability index came out at 1.61 ± 0.063 (doa10∆), 1.75 ± 0.065 (pdr5∆), 1.61 ± 0.084 (san1∆) and 2.07 ± 0.037 (ubr1∆).

TYQLCVRLRSNVIKTGI [RPN3]: the protein stability index (doa10∆) was determined as 3.25 ± 0.14, the protein stability index (pdr5∆) was found to be 3.35 ± 0.14 and the protein stability index (san1∆) turned out to be 3.27 ± 0.084.

Consider IMAKRPFDKKSNSALFR [FAS1], for which the protein stability index by setting is: (doa10∆) 2.84 ± 0.059; (pdr5∆) 2.9 ± 0.062; (san1∆) 2.87 ± 0.046; (ubr1∆) 2.89 ± 0.05.
